From publication PMC3247736

Test system: IgM (human)
Assay: QCM
Conditions: 500 mg/L IgM vs 100 ug/L IgE; 5'-biotin; 8.1 mM Na2HPO4, 1.1 mM KH2PO4, 1 mM MgCl2, 2.7 mM KCl, 138 mM NaCl, pH 7.4, 37 C; BSA-blocked avidin-coated gold crystal

“GGGGCACGTTTATCCGTCCCTCCTAGTGGCGTGCCCC [D17.4 anti-IgE aptamer]” was tested, and the binding signal (% of IgE response) was less than 5.
